The text below walks through data of patent publication US20150087596A1.

For assay [1], the target named is human Nav1.2 (sodium channel protein type 2 subunit alpha) (human) (UniProt Q99250). Nature of the assay: cell-based or functional assay.
In assay [2] the target is human Nav1.7 (sodium channel protein type 9 subunit alpha) (human) (UniProt Q15858). Nature of the assay: cell-based or functional assay.

recombinant Huwentoxin-IV (peptide) gave an IC50, veratridine-induced depolarization inhibition assay in assay [1] of 342 nM. Besides, in assay [2], the IC50, veratridine-induced depolarization inhibition assay is 159 nM and the ratio of IC50 for Nav1.2 to IC50 for Nav1.7 amounted to 2.14.
